± gives the standard deviation.
Experiment: protein stability index of a GFP-peptide fusion (GPS, HEK-293T) (PSI 1-6); higher = more stable
Conditions: c terminus: a fixed tail appended
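Further: 24-mer peptide tiles fused after GFP, lentivirally expressed, FACS-sorted into six equal bins by GFP/DsRed ratio, decoded by Illumina sequencing, PSI is the read-weighted mean bin number.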

Sequence	protein stability index (treatment: DMSO)	protein stability index (treatment: MLN4924 1 uM, 8 h)
ASMAPAAALPPVPSPPAAPSVADN [SERTAD1]	5.3 ± 0.13	5.31 ± 0.42
PFIVTLEGNALQGPILQKDYVQLE [ZNF449]	2.46 ± 0.18	2.59 ± 0.31
SDSVIMTGSYNNFFRMFDRNTKRD [PPP2R2B]	3.55 ± 0.18	3.63 ± 0.19
CRKCIASSGCFMEYLENQVIKDKD [RNF180]	2.42 ± 0.26	2.5 ± 0.41
FATFCGGLAANGALQRLDLRNNQI [LRRC45]	2.36 ± 0.19	2.37 ± 0.23
SLCSLLESQSTSLRGSYNSLHDGS [LURAP1L]	2.8 ± 0.11	2.87 ± 0.41
NAPKFQAENLDVKINENVAAGMRF [PCDHGA10]	3.77 ± 0.61	3.86 ± 0.45
HIKFPIDYPYSPPTFRFLTKMWHP [UBE2R2]	2.3 ± 0.32	2.24 ± 0.39
SDVICDFPFQAMVQFHRHHGQEGS [GMPPB]	3.12 ± 0.32	3.19 ± 0.28
TKADIGTPSNFQHIGHVGWDPNTG [WASL]	3.81 ± 0.21	3.85 ± 0.18
PYDGNSSDPENWDRKLHSRPRKLY [BTBD10]	3.35 ± 0.24	3.41 ± 0.34
TPSNFQHIGHVGWDPNTGFDLNNL [WASL]	3.24 ± 0.3	3.47 ± 0.4
KLYHQSKGPGAPQYPAGTQGEQLE [SPSB2]	4.72 ± 0.29	5 ± 0.32
NSKPQDLTDAYGPPSNFLEIDIFN [SNX12]	3.63 ± 0.18	3.83 ± 0.24
VSGSHFVGVDGVRAFLQTYSHEVS [PCDHGA10]	2.49 ± 0.27	2.24 ± 0.24
EILEQQQQERNDTNFHGVCMFCNE [ZNF277]	3.73 ± 0.37	3.77 ± 0.43
QAGDYSMRVDLRAGDEAVFAQYDS [TNXB]	4.43 ± 0.42	4.2 ± 0.096
VQEQQKQLQDQDQKLLEQTQIIGE [FBXO28]	5.43 ± 0.28	5.36 ± 0.09
TARMEMLIEELYAFMPARSQDPKK [CBY2]	2.66 ± 0.39	2.94 ± 0.27
SDKIGSTIDDTISKFRRKDREDSP [CLINT1]	5.1 ± 0.4	5.21 ± 0.3
LQIASDSHQYDRIYCGAGVQKDHE [PCMTD1]	4.24 ± 0.25	4.25 ± 0.28
TLLAVGCNDGRIVIWDFLTRGIAK [RBBP5]	2.65 ± 0.51	2.55 ± 0.84
KLKGAEVTYMNMTAYNKGRLQSSF [PLD5]	2.36 ± 0.22	2.72 ± 0.22

Sequence	protein stability index (treatment: DMSO)	protein stability index (treatment: MLN4924 1 uM, 8 h)
AVEDGLQQFKQYSRHVTTRAALTY [M1AP]	3.14 ± 0.42	3.1 ± 0.23
EAQEEFLRVLGSMCQRLRSMQYNG [DFFB]	2.27 ± 0.21	2.27 ± 0.21
LRQAQQNMDPKAAEEEEEEEEEVD [CCND1]	5.64 ± 0.35	5.56 ± 0.33
GLLSLLLPETLNSPLLETFSDLQV [SLC22A15]	2.47 ± 0.67	2.68 ± 0.68
GKEFGYFPRDAVQIEEVFISEEIQ [MIA2]	3.88 ± 0.42	3.77 ± 0.45
LRTLRDFPAEERARVLDRRGCSRV [ANKRD9]	3.91 ± 0.32	4.06 ± 0.29
CLVFELLSYNLYDLLRNTHFRGVS [DYRK1B]	2.95 ± 0.3	3.3 ± 0.16
AGRWLWGAQPCLLLPIVPLSWLVW [ADAMTS4]	2.98 ± 1.5	3.24 ± 2.6
GNDSFQLQVTEDVNSSIKTFFCPN [CLCN6]	3.54 ± 0.31	3.6 ± 0.26
LRNLSDAATKQEGMEGLLGTLVQL [CTNNB1]	3.51 ± 0.16	3.03 ± 0.65
EGRGGRPGSTRPHRSACSSAAVRG [HAGHL]	4.52 ± 0.17	4.58 ± 0.19
LVELSAENEKLHQRVEQLTRDLAG [CEBPD]	3.64 ± 0.61	3.73 ± 0.28
REDDKLVVECVMKGVTSTRVYERA [FABP4]	3.68 ± 0.38	4.09 ± 0.29
HQDLKYISPETMVALLTGKFSNIV [CDC25B]	2.23 ± 0.41	2.55 ± 0.54
SSSSLGNKLQTLSPSHKGIAAPHA [ZC2HC1A]	3.81 ± 0.22	3.97 ± 0.26
PAQVPREVLKVQTHLENPTRYHLQ [TFE3]	3.75 ± 0.43	3.82 ± 0.093
EPVAAEPKQSGSFRYLQGMLEAGE [PDLIM4]	4.6 ± 0.11	4.6 ± 0.11
GPRPVQSVVPEMEESGAQLLLEML [CDK4]	3.91 ± 0.66	3.71 ± 0.15
TVTSLKTKVGGTNPNGGSFEEVLS [TPD52L1]	3.811 ± 0.036	3.82 ± 0.18
RKKSADVLALADEAGYYFFNGNYK [ADAMTSL2]	3 ± 0.22	3.05 ± 0.33
NLKTLDSKPGVYTSYKPYLNRDEE [DENND6A]	3.6 ± 0.56	3.63 ± 0.38
LLTHRCLRDEHRCASKYGRDWERY [DHCR7]	2.26 ± 0.27	2.38 ± 0.11
DGLDLDWEYPGSQGSPAVDKERFT [CHIT1]	4.94 ± 0.21	5.04 ± 0.19

Sequence	protein stability index (treatment: DMSO)	protein stability index (treatment: MLN4924 1 uM, 8 h)
HGEELRVSARSREGRGGRPGSTRP [HAGHL]	4.92 ± 0.2	4.93 ± 0.16
AAQEGEDEGASAGQGPKPEADSQE [GAGE1]	5.67 ± 0.17	5.64 ± 0.24
NAGQSDNRSLAEACSEGDVNAVRK [ANKRD17]	5.56 ± 0.15	5.46 ± 0.15
LQNFLLHGTKNVTNSSSLRLPRQN [WSB1]	2.89 ± 0.16	3 ± 0.23
IVYHPYRPLLQYVQDMGQEDMLLP [CCNC]	2.25 ± 0.57	1.93 ± 0.34
PRYITDVIDAEPFIRCSLQCRDLV [KLHL12]	2.25 ± 0.57	2.26 ± 0.66
LLCLRAVTHREGAPPLPGAESFPG [PLEKHN1]	3.08 ± 0.23	3.11 ± 0.067
NNEAFMNQEITKAFHVRRTNRVKE [RHOBTB2]	4.44 ± 0.25	4.48 ± 0.21
SLEPFRPQQAPQDDGSQDPEVLDR [PWWP2B]	5.51 ± 0.16	5.53 ± 0.14
ESAAFSQGSRSGVSGGSRSLNMSR [PHTF1]	4.44 ± 0.17	4.5 ± 0.23
KAAGSVSKSTQFEYAWCLVRSKYN [FIS1]	2.24 ± 0.57	2.17 ± 0.37
LRETKRKYESVLQLGRALTAHLYS [ARFIP2]	2.3 ± 0.5	2.15 ± 0.32
RAAAQQRRSFLNAHHRSGAQVFPE [GNAS]	3.53 ± 0.12	3.5 ± 0.23
PETKQRKLSPLRLSVSNNQEPDFI [KMT2E]	4.16 ± 0.24	4.38 ± 0.32
APGSASSSKVSGVLKKLAQSRRTA [YJU2B]	3.81 ± 0.3	3.87 ± 0.34
TRKQAAKKVAPLMAKAIRDYKGRF [ELOA2]	3.25 ± 0.37	3.39 ± 0.36
HTEERPYECNHCGKGFRHSSSLAQ [ZNF8]	3.58 ± 0.3	3.79 ± 0.27
SNAMLVGDKLKFLSMLLTLKCEMN [ACSBG2]	2.66 ± 0.62	2.52 ± 0.052
YAGNLHESGVHGALLALDENFDHN [PPFIA4]	3.26 ± 0.51	3.7 ± 0.73
TEDGKLDIWSKSNYQVFQKVTDHA [MED27]	3.67 ± 0.27	3.77 ± 0.42
SLELPKAIQDQLPRLQQLLKTLEE [FANCE]	2.66 ± 0.32	2.85 ± 0.24
SYGPVILVVLVVAVVASSVNSYYS [TOR1AIP2]	3.57 ± 0.3	2.85 ± 0.095
HVFIGDHSGQVTILKLEQENCTLV [WDFY2]	2.09 ± 0.39	2.19 ± 0.19

Sequence	protein stability index (treatment: DMSO)	protein stability index (treatment: MLN4924 1 uM, 8 h)
LLSFKRGSALEEKENKILVKETGY [TNFSF13B]	3.45 ± 0.38	3.31 ± 0.37
DSEQNGQVTCSILAYLPFKLEKSI [PCDHGA10]	2.16 ± 0.24	2.27 ± 0.41
MNDFGIKNMDQVAPVANSYRGTLK [ETS2]	4.06 ± 0.31	4.02 ± 0.26
HSQFIGYPITLYLEKEREKEISDD [HSP90AB1]	3.82 ± 0.082	3.9 ± 0.26
ALAGYTGSGPIQLWQFLLELLTDK [ETS1]	2.35 ± 0.13	2.48 ± 0.31
LYGQRNSAPEQELLVQDATPVSNS [GFOD1]	4.82 ± 0.098	4.76 ± 0.11
QEDSGLRDHSVRVLISNHVTPFDH [AUP1]	3.9 ± 0.12	3.67 ± 0.29
KEQNNLKQLEFGLKEAPVQDQGYK [ZNF8]	5.08 ± 0.2	5.25 ± 0.17
SRIAKGGVDHTKMSLHGASGGHER [BTBD10]	4.5 ± 0.19	4.43 ± 0.14
RGGRQKYKRRIDAENSPYLNPQLV [ESRRG]	3.59 ± 0.25	3.93 ± 0.21
AGEGRLGHKRKQPLPKRVAKVPRP [FOXJ1]	4.53 ± 0.45	4.36 ± 0.43
DKAVEIEELTYIIKQDINSLNKQI [STX5]	2.91 ± 0.14	3.12 ± 0.56
LWKMKPRRNLEEDDYLHKDTGETS [STEAP1]	4.07 ± 0.3	4.08 ± 0.42
LINKMLTINPSKRITAAEALKHPW [CAMK2A]	2.16 ± 0.11	2.17 ± 0.18
SLRDKVLQLQKGSDTEAQCEVMQE [INTS3]	5.11 ± 0.23	5.08 ± 0.2
LDPASLAWLTEEEPEPAEVTSTSQ [DDIT3]	5.51 ± 0.17	5.53 ± 0.31
FHLAPARAGHHPNQYATCRLCGRQ [ZBED2]	2.58 ± 0.41	3.14 ± 0.68
QAALQKQQEVVVAGSSLPTSSKVN [ACBD3]	5.04 ± 0.18	5.03 ± 0.063
DHMVRMHLYPADFRFDKPKKSRSP [ZNF511]	3.42 ± 0.38	3.77 ± 0.43
DAQLLPHHSLQAHFRPRFHPLPTV [TMEM192]	3.22 ± 0.18	3.22 ± 0.16

Source: the supplement of paper PMC10567573
